Data as given in patent US20200283515A1 (HUMANITAS MIRASOLE S P A, published 2020).
Ends that are not written are not given here. * marks the point of attachment. Biotin = O=C1N[C@H]2[C@H](CS[C@H]2CCCCC(=O)*)N1; Ahx = NCCCCCC(=O)O

T1: biot-VSIPPRNLGY peptide (biot-Ahx-VSIPPRNLGY) (human)
T1 construct: Synthetic; captured on NeutrAvidin-coated plates; also called unique MSF decapeptide; C-terminal unique tail of MSF
T1 peptide: {Biotin-Ahx}-VSIPPRNLGY


Tests used:
[1] = target: T2, recombinant human Migration Stimulating Factor (rhMSF) (human, UniProt P02751 32-647); assay: immunoaffinity chromatography on a column coupled to 1G5.3
T2 construct: Secreted by the CHO-3E6 clone; also called hrMSF; human recombinant MSF
T2 sequence (P02751 other isoform, or with tags, fused parts or gaps limits assumed): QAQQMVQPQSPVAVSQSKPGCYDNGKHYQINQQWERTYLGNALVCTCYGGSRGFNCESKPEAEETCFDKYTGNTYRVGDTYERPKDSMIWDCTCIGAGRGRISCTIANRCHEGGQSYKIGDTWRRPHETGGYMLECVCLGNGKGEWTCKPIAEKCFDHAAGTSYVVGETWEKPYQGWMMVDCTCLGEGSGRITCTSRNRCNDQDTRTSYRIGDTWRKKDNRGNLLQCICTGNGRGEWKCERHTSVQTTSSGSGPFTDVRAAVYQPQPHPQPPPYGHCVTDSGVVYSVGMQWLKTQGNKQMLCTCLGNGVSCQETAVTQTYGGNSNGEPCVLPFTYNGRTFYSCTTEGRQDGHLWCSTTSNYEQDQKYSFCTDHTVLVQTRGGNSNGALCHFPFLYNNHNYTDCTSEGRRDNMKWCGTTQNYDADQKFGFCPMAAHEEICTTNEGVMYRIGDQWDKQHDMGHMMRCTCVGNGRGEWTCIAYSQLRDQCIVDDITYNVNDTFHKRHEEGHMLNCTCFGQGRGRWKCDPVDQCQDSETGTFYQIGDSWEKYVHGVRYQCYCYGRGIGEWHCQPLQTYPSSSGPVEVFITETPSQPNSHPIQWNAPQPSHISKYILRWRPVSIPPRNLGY
Experimental: Recombinant human MSF was purified from the conditioned medium of CHO-3E6 by immunoaffinity chromatography (IAC). […] The 1G5.3 column was extensively washed at 5 ml/min with buffer A followed by buffer B (50 mM Tris-HCl, 500 mM NaCl, pH 7.00), and bound rhMSF was eluted with buffer C (3.5 M MgCl2) in a total volume of 4 ml. Homogeneity of the eluted protein was assessed using an analytical Superdex 200 10/300 GL gel filtration column (GE Healthcare), equilibrated and eluted at 0.5 ml/min with buffer B on an AKTA Purifier FPLC system. In addition, aliquots of conditioned medium (input), unbound material (flow through) and eluted protein (eluate) from IAC were resolved on NuPAGE Novex Bis-Tris 10% gels (Thermo Fisher Scientific, Waltham, Mass.) under denaturing and reducing conditions (i.e., in the presence of dithiothreitol). […] Membranes were developed with Immobilon western HRP substrate (Merck Millipore, Darmstadt, Germany) and chemiluminescence recorded on a Chemidoc MP system (Bio-Rad). Throughout the purification process, total protein content was determined using a Bradford protein assay (Bio-Rad) and rhMSF specific titres were measured with an ELISA MSF assay made “in-house” as described below.

[2] = target: T3, human Fibronectin 1 (hFn1) (human, UniProt P02751 32-2477); assay: indirect ELISA, titration of purified 1G5.3 on coated hFn1
T3 construct: Bought from Calbiochem (Cat No 341635)
T3 sequence (P02751 other isoform, or with tags, fused parts or gaps limits assumed): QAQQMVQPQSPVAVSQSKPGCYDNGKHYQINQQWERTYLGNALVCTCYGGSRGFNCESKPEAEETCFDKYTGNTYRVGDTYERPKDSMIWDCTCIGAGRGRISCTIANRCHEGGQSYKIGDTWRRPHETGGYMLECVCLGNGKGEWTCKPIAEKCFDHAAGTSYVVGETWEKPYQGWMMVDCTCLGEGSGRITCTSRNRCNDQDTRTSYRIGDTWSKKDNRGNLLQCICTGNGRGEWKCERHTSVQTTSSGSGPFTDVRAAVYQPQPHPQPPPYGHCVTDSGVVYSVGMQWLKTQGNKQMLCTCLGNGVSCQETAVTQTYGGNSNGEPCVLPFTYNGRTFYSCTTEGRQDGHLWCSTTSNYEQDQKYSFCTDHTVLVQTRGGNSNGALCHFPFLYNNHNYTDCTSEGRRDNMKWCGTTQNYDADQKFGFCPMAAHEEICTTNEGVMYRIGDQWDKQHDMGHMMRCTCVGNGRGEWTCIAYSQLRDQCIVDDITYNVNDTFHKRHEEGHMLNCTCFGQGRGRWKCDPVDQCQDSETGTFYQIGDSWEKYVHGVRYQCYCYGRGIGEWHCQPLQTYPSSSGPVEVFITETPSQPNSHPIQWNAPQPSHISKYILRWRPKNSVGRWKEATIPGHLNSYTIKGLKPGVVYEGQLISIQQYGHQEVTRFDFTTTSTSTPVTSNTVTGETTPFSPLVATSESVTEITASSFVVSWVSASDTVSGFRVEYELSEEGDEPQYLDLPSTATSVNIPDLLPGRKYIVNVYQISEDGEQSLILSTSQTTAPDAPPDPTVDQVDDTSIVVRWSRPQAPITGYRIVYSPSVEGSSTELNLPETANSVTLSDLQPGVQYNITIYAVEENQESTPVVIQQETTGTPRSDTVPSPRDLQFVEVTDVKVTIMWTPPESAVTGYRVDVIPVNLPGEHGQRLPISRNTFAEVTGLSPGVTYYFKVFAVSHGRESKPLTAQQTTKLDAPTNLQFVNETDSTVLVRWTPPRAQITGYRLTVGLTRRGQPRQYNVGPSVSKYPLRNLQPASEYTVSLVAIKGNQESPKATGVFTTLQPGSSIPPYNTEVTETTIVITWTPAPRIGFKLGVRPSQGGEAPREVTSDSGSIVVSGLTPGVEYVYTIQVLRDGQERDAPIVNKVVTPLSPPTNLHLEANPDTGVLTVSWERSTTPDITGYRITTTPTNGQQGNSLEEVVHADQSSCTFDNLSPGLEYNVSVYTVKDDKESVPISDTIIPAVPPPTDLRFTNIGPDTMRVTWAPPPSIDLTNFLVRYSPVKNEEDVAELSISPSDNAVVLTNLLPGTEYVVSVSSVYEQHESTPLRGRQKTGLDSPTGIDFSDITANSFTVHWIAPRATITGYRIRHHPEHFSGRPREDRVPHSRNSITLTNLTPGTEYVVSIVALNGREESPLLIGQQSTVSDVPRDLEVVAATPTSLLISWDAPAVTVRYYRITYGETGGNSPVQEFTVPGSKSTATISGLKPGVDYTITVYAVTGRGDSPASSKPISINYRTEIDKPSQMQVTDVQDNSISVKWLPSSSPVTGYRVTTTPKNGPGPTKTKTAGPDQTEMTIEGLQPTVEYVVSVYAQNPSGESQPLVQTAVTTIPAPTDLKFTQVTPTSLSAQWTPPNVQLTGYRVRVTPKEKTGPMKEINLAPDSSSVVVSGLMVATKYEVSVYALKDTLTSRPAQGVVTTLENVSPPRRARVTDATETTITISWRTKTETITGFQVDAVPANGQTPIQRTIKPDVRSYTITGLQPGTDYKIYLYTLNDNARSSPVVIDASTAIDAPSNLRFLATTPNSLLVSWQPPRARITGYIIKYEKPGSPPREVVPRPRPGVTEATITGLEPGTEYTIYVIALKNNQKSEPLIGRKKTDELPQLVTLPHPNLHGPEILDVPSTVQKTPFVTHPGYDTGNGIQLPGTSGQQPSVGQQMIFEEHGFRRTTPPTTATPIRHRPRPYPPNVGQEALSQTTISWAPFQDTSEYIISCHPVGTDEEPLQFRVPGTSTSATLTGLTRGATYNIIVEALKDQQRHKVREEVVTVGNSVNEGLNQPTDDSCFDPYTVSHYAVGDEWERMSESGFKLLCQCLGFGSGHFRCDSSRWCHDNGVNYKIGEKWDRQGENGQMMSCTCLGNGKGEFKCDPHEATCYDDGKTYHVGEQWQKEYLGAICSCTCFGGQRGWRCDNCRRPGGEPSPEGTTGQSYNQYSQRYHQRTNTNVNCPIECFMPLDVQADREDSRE
Experimental: ELISA plates (Nunc Maxisorb immunoplates Cat. No.: 446612) were coated (0/N at 4° C.) with His-MSF (1-0.5 μg/well), supernatant from CHO-3E6 (50 μl) or hFn1 (1 μg/well), diluted in 15 mM Na carbonate buffer (pH9.6). After coating plates are washed three times with PBS+/+ and 0.05% Tween 20 (washing buffer), then non-specific interactions are blocked by incubation for 2 h at room temperature with 5% (w/v) dry milk in washing buffer. Wells were washed three times with washing buffer, then aliquots of rabbit polyclonal antiserum, supernatants from anti-MSF hybridomas or purified 1G5.3 diluted in washing buffer were added and incubated 1 h at room temperature. Anti-rabbit IgG or anti-mouse IgG labelled with horse-radish peroxidase (Cat No: GENA934 and GENA931 respectively, GE […]) were then added (1/2000 in washing buffer) and incubated 1 h at room temperature. Reaction was developed with 3,3′,5,5′-tetramethylbenzidine (TMB; 1 Step™ ULTRA TMB-ELISA, Thermo Scientific, Rockford, Ill., USA; Cat No: 34019) and stopped with 2N H₂SO₄ before reading absorbance at 450 nm with an automated plate reader (Versamax microplate reader). Baseline was obtained adding anti-MSF antibody on buffer-coated wells.
mAb 1G5.3 was purified from culture supernatant of hybridoma cells by affinity chromatography on Protein-G sepharose. […] The purified antibody was finally analyzed in ELISA. […]

[3] = target: T4, human Migration Stimulating Factor (MSF), natural protein in human cancer tissues (human, UniProt P02751 32-647); assay: immunohistochemistry on paraffin sections of breast and lung cancer
T4 construct: Natural MSF as stained in formalin-fixed paraffin-embedded sections of breast and lung cancer; also called human MSF
Experimental: Paraffin-embedded human tissue sections were cut and kept overnight at 37° C. Sections were dewaxed in Bioclear. Antigen unmasking was performed in a Decloaker Chamber in DIVA Buffer 1× (Biocare Medical Cat No: DV2004) for 3 minutes at 125° C. and 5 minutes at 90° C.
After blocking endogenous peroxidases with Peroxidized-1 (Biocare Medical Cat No: PX968) for 15 minutes, non-specific binding sites were blocked with Background Sniper solution (Biocare Medical Cat No: BS966) for 30 minutes. Human tissue samples were then incubated 1 h with 1G5.3 (1/150-1/300) to identify MSF, or with mouse monoclonal anti-human CD68 (Dako Cat No: M0876, clone PG-M1, 780 μg/ml for 1 h) to identify macrophages. […] Then the reactions were developed with 3,3′-Diaminobenzidine tetrahydrochloride (Biocare Medical Cat No: DB801). Slides were counterstained for 3 min with haematoxylin solution.

[4] = target: T1, biot-VSIPPRNLGY peptide …; assay: indirect ELISA, peptide captured on NeutrAvidin, 1G5.3 at 10 ng/ml (FIG. 20A)
Experimental: FIG. 20. Indirect ELISA analysis of the interaction of mAb7.1 and 1G5.3 with biot-[…] and rhMSF. A) The biot-[…] peptide (SEQ ID NO:11) (spanning the aa 648-657 sequence at the C-terminus of human MSF) was captured onto Maxisorb plates that had been coated with NeutrAvidin. […] B) Maxisorb plates were coated with rhMSF, and incubated with mAb7.1 hybridoma cultures or purified 1G5.3. […] Wells containing NeutrAvidin (NeutrAvidin in A) or PBS−/− (PBS in B) only were taken as negative controls. Shown are plots from one out of two independent experiments, each performed in duplicate.
Nunc Maxisorb immunoplates were coated (0/N at 4° C.) with NeutrAvidin protein (1 μg/well; Thermo Scientific, Rockford, Ill., USA; Cat No: 31000) in PBS−/−. Biot-[…] (SEQ ID NO:11) peptide (100 μl/well, 10 μg/ml in PBS+/+ containing 0.05% (v/v) Tween 20, washing buffer) was added and captured on the NeutrAvidin layer for 1 h at room temperature; this allowed N→C orientation of the peptide, thus mimicking its topological organization in the context of the MSF protein [19]. Uncoated sites were blocked by incubation for 2 h at room temperature with 2% (w/v) bovine serum albumin (BSA, Sigma Aldrich; Cat No: A7030) in PBS+/+. […] Each sample was analyzed in duplicate and results were reported as mean±SD.

[5] = target: T2, recombinant human Migration Stimulating …; assay: sandwich ELISA, 1G5.3-F(ab)′2 coated, rhMSF standard curve
Experimental: To measure MSF levels in biological fluids a sandwich ELISA has been developed. To this aim ELISA plates were incubated O/N at 4° C. with 250 ng/well of 1G5.3 or 500 ng/well of the 1G5.3-F(ab)′2 fragment diluted in PBS−/−, pH 7.0. After coating, plates were washed three times with 300 μl of washing buffer and then blocked with 5% dry milk for 2 h at 37° C. 100 μl of human plasma [informed consents were obtained] diluted 1/10 in washing buffer containing 2% Bovine Serum Albumin were then added and incubated for 1 h at room temperature. In the same plate a standard curve was generated using purified recombinant human MSF. After washing, plates were incubated with commercial biotinylated polyclonal Sheep IgG recognizing human hFn1 (0.25 μg/ml in washing buffer; R&D Cat No: BAF1918) for 1 h at room temperature. Finally, 100 μl of peroxidase-streptavidin (BioSpa Cat No: SB01-161) diluted 1/10000 in washing buffer were added and incubated 1 h at room temperature. Plates were then washed and incubated with 100 μl/well of the chromogenic substrate TMB before blocking with 2N H2SO4. Absorbance was read at 450 nm as described above. Linear regression was used to calculate MSF concentration in plasma samples from the standard curve made with recombinant MSF.
The 1G5.3-F(ab)′2 fragment was then tested in the sandwich ELISA following the same procedure outlined above. […]

| Binder | binding result [1] | binding result [2] | binding result [3] | binding result [4] | binding result [5] |
| --- | --- | --- | --- | --- | --- |
| monoclonal antibody 1G5.3 (antibody, mouse IgG1, kappa, V domains shown, Mouse IgG1, kappa; Used purified (Protein G) or as hybridoma supernatant; also called mAb 1G5.3; 1G5.3 mAb) VH: EVKIEESGGGLVQPGGSMKLSCVASGFTFSNDWMNWVRQSPEKGLEWVAEIRMKSDNYATYYAESVKGRFTISRDDSKNSVYLQMNNLRAEDNGIYYCTSWDYWGQGTTLTVSS VL: DIVMSQSPSSLAVSTGEKVTMNCRSSHYLLNSRTRKNFLSWYQQKPGQSPQLLIYWASTRYSGVPDRFTGSGSGTDFTLTISSVQAEDLAVYYCKQSYNLHTFGGGTKLEIKR | binds | no binding (tested: 10 µg/ml to 0.005 ng/ml of 1G5.3) | binds | binds | – |
| 1G5.3-F(ab)′2 fragment (other, not shown: a dimerising Fc or GST, Made from purified 1G5.3 by pepsin digestion; 110 kDa non-reduced; also called anti-human MSF 1G5.3 F(ab)′2 fragment) heavy: EVKIEESGGGLVQPGGSMKLSCVASGFTFSNDWMNWVRQSPEKGLEWVAEIRMKSDNYATYYAESVKGRFTISRDDSKNSVYLQMNNLRAEDNGIYYCTSWDYWGQGTTLTVSS light: DIVMSQSPSSLAVSTGEKVTMNCRSSHYLLNSRTRKNFLSWYQQKPGQSPQLLIYWASTRYSGVPDRFTGSGSGTDFTLTISSVQAEDLAVYYCKQSYNLHTFGGGTKLEIKRADAAPTVSIFPPSSEQLTSGGASVVCFLNNFYPKDINVKWKIDGSERQNGVLNSWTDQDSKDSTYSMSSTLTLTKDEYERHNSYTCEATHKTSTSPIVKSFNRNEC | – | – | – | – | binds |
